# Assay results as given in US20120014936A1 (SHIRE HUMAN GENETIC THERAPIES, published 2012).
# Biological target: the molecule itself
# Assay: SEC-HPLC with light scattering, self-association (homodimer)
protein,measurement,value
"recombinant human heparan N-sulfatase (rhHNS), mature form (enzyme, In the immunohistochemistry it was detected in fixed monkey tissue after intrathecal dosing; also called sulfamidase; human HNS) RPRNALLLLADDGGFESGAYNNSAIATPHLDALARRSLLFRNAFTSVSSCSPSRASLLTGLPQHQNGMYGLHQDVHHFNSFDKVRSLPLLLSQAGVRTGIIGKKHVGPETVYPFDFAYTEENGSVLQVGRNITRIKLLVRKFLQTQDDRPFFLYVAFHDPHRCGHSQPQYGTFCEKFGNGESGMGRIPDWTPQAYDPLDVLVPYFVPNTPAARADLAAQYTTVGRMDQGVGLVLQELRDAGVLNDTLVIFTSDNGIPFPSGRTNLYWPGTAEPLLVSSPEHPKRWGQVSEAYVSLLDLTPTILDWFSIPYPSYAIFGSKTIHLTGRSLLPALEAEPLWATVFGSQSHHEVTMSYPMRSVQHRHFRLVHNLNFKMPFPIDQDFYVSPTFQDLLNRTTAGQPTGWYKDLRHYYYRARWELYDRSRDPHETQNLATDPRFAQLLEMLRDQLAKWQWETHDPWVCAPDGVLEEKLSPQCQPLHNEL",binding result,binds
